In general, Km refers to the substrate concentration at which the rate is half of its maximum. Usually kcat stands for the number of substrate molecules converted per active site and unit of time at saturation.

This note sets out measurements from article PMC8967036, “Engineering of phenylalanine dehydrogenase from Thermoactinomyces intermedius for the production of a novel homoglutamate” (PLoS ONE, 2022).

Substrate in series [1]: O=C(O)C(=O)Cc1ccccc1
Description: purified protein. Format: biochemical, Thermoactinomyces intermedius. The conditions noted are these: reductive amination, Tris-NH4Cl pH 8.0, 1 mM NADH, 37°C (general assay).

Substrate in series [2]: O=C(O)CCCC(=O)C(=O)O
Description: purified protein. Format: biochemical, Thermoactinomyces intermedius. The conditions noted are these: reductive amination, Tris-NH4Cl pH 8.0, 1 mM NADH, 37°C (general assay).

Where [3] appears, read: mutant called only 'mutated TiPDH' at the number, A135R by b37-b38 (G114R and double mutant inactive).

B1: TiPDH (phenylalanine dehydrogenase) (Thermoactinomyces intermedius) (protein)
chain: MRDVFEMMDRYGHEQVIFCRHPQTGLKAIIALHNTTAGPALGGCRMIPYASTDEALEDVLRLSKGMTYKCSLADVDFGGGKMVIIGDPKKDKSPELFRVIGRFVGGLNGRFYTGTDMGTNPEDFVHAARESKSFAGLPKSYGGKGDTSIPTALGVFHGMRATARFLWGTDQLKGRVVAIQGVGKVGERLLQLLVEVGAYCKIADIDSVRCEQLKEKYGDKVQLVDVNRIHKESCDIFSPCAKGGVVNDDTIDEFRCLAIVGSANNQLVEDRHGALLQKRSICYAPDYLVNAGGLIQVADELEGFHEERVLAKTEAIYDMVLDIFHRAKNENITTCEAADRIVMERLKKLTDIRRILLEDPRNSARR
notes: His-tagged, pET-Duet1, E. coli BL21(DE3), Ni-NTA purified
As to B1, in “purified protein [1]” (natural substrate), the Km came to 0.66 µM and the kcat was found to be 0.3715 s⁻¹. In “purified protein [2]”, the Km is 1.771 µM and the kcat came to 0.00513 s⁻¹.

B2: TiPDH (phenylalanine dehydrogenase) (Thermoactinomyces intermedius; A135R) (protein)
chain: MRDVFEMMDRYGHEQVIFCRHPQTGLKAIIALHNTTAGPALGGCRMIPYASTDEALEDVLRLSKGMTYKCSLADVDFGGGKMVIIGDPKKDKSPELFRVIGRFVGGLNGRFYTGTDMGTNPEDFVHAARESKSFRGLPKSYGGKGDTSIPTALGVFHGMRATARFLWGTDQLKGRVVAIQGVGKVGERLLQLLVEVGAYCKIADIDSVRCEQLKEKYGDKVQLVDVNRIHKESCDIFSPCAKGGVVNDDTIDEFRCLAIVGSANNQLVEDRHGALLQKRSICYAPDYLVNAGGLIQVADELEGFHEERVLAKTEAIYDMVLDIFHRAKNENITTCEAADRIVMERLKKLTDIRRILLEDPRNSARR
notes: as for B1
In the case of B2, in the series “purified protein [1]”, the Km stood at 1.2 µM and the kcat worked out at 0.4307 s⁻¹. Also, in “purified protein [2]” (setting [3]), the Km was 7.518 µM and the kcat amounted to 0.0228 s⁻¹.
